From the MegaScale stability set (Tsuboyama et al. 2023)

B1: 1ZHC (parent)
chain: HEFRDEISVLKANNPHFDKIFEKHNQLDDDIKTAEQQNASDAEVSHMKKQKLKLKDEIHSMIIEYREK

Variants of: B1
Assay: folding stability dG (cDNA display proteolysis); higher = more stable
Conditions: PBS, room temperature

Variant	folding stability dG
HEFRDEISVLKANNGHFDKIFEKHNQLDDDIKTAEQQNASDAEVSHMKKQKLKLKDEIHSMIIEYREK [P15G]	0.048 kcal/mol
HEFRDEISVLKANNPHFDKIFEKHNQLDDDIKTAEQQNASDAEVSHMKKQKLKLKDWIHSMIIEYREK [E57W]	0.602 kcal/mol
HEFRDEISVLKANNPHFDKIFEKHNQLDDDIKTAEQQNASDAEVSHMKKQKLKLKDEIHSIIIEYREK [M61I]	0.447 kcal/mol
HEFRDEISVLKANNPHFDKIFEKHNQLDDDIKTAEQQNAMDAEVSHMKKQKLKLKDEIHSMIIEYREK [S40M]	-0.003 kcal/mol
HEFRDEISVLKANNPHFDKIFEKHNQLDDDIKTAEQQNASVAEVSHMKKQKLKLKDEIHSMIIEYREK [D41V]	0.775 kcal/mol
HEFRDEISVLKANNPHFDKIFEKHNQLDDDIKTAEQQNASWAEVSHMKKQKLKLKDEIHSMIIEYREK [D41W]	0.916 kcal/mol
HEFRDEISVLKANNPHFDKIFEKHQQLDDDIKTAEQQNASDAEVSHMKKQKLKLKDEIHSMIIEYREK [N25Q]	1.29 kcal/mol
HEFRDEISVLKANNPHFDKIFEKHNQLDKDIKTAEQQNASDAEVSHMKKQKLKLKDEIHSMIIEYREK [D29K]	1.79 kcal/mol
HEFRDEISVLWANNPHFDKIFEKHNQLDDDIKTAEQQNASDAEVSHMKKQKLKLKDEIHSMIIEYREK [K11W]	-0.052 kcal/mol
HEFRDEFSVLKANNPHFDKIFEKHNQLDDDIKTAEQQNASDAEVSHMKKQKLKLKDEIHSMIIEYREK [I7F]	0.109 kcal/mol
HEFRDEISVLKANNPHFDKIFEKHNQLDDDIKTAEQQNASDAEVCHMKKQKLKLKDEIHSMIIEYREK [S45C]	1.15 kcal/mol
HEFRDEISVLKANNPHFDKIFEKHNQLDDDIKTAEQQNASDAEVHHMKKQKLKLKDEIHSMIIEYREK [S45H]	0.845 kcal/mol
HEFRDEISVLKANNPHFDKIFEKHNQLDDDIKTAQQQNASDAEVSHMKKQKLKLKDEIHSMIIEYREK [E35Q]	1.17 kcal/mol
HEFRDEISVLKANNPHFDKIFEKHNQLDDDIKTAAQQNASDAEVSHMKKQKLKLKDEIHSMIIEYREK [E35A]	0.281 kcal/mol
HEFRDEISVLKANNPHFDKIFEKHNQLDDDIKTATQQNASDAEVSHMKKQKLKLKDEIHSMIIEYREK [E35T]	0.201 kcal/mol
HEFRDEISVLKFNNPHFDKIFEKHNQLDDDIKTAEQQNASDAEVSHMKKQKLKLKDEIHSMIIEYREK [A12F]	0.361 kcal/mol
HEFRDEISVLKANNPHFDKIFEKFNQLDDDIKTAEQQNASDAEVSHMKKQKLKLKDEIHSMIIEYREK [H24F]	2.06 kcal/mol
HEFRDEISVLKANNPHFDKIFEKVNQLDDDIKTAEQQNASDAEVSHMKKQKLKLKDEIHSMIIEYREK [H24V]	0.939 kcal/mol
HEFRDEISVLKANNPHFDKIFEKHNQLDDDIKTAEIQNASDAEVSHMKKQKLKLKDEIHSMIIEYREK [Q36I]	0.263 kcal/mol
HEFRDEISVLKANNPHFDKIFEKHNQLDDDIKTAEHQNASDAEVSHMKKQKLKLKDEIHSMIIEYREK [Q36H]	-0.003 kcal/mol

Variant	folding stability dG
HEFRDEISVLKANNPHFDKIFEKHNQLDDDIKTAEQQNASDAEVSHMKKQKLKLKDEIHSMIIEYRFK [E67F]	0.916 kcal/mol
HEFRDEIIVLKANNPHFDKIFEKHNQLDDDIKTAEQQNASDAEVSHMKKQKLKLKDEIHSMIIEYREK [S8I]	0.988 kcal/mol
HEFRDEISVLKANNPHFDKIFEKHNQLDDDIKTAEQQNASDAEVSHMRKQKLKLKDEIHSMIIEYREK [K48R]	0.398 kcal/mol
HEFTDEISVLKANNPHFDKIFEKHNQLDDDIKTAEQQNASDAEVSHMKKQKLKLKDEIHSMIIEYREK [R4T]	0.952 kcal/mol
HEFRDEISVLKANNPHFDKIFEKHNQLDDDIKEAEQQNASDAEVSHMKKQKLKLKDEIHSMIIEYREK [T33E]	0.363 kcal/mol
HEFRDEISVLKANNPHFDKIFEKHNQLDDDIKTAEQQNASDAEVSHMKKQKLKLKDEIHSMIIEYREV [K68V]	0.338 kcal/mol
MEFRDEISVLKANNPHFDKIFEKHNQLDDDIKTAEQQNASDAEVSHMKKQKLKLKDEIHSMIIEYREK [H1M]	1.11 kcal/mol
HEFRDEISVLKANNPHFDKIFEKHNQLDDDIKTAEQQNASDAEVSHMKKQKLKLKDEIHSMIIHYREK [E64H]	0.632 kcal/mol
HEFRDEISVLKANNPHFDFIFEKHNQLDDDIKTAEQQNASDAEVSHMKKQKLKLKDEIHSMIIEYREK [K19F]	1.37 kcal/mol
HEFRDEISVLKANNPHFDIIFEKHNQLDDDIKTAEQQNASDAEVSHMKKQKLKLKDEIHSMIIEYREK [K19I]	0.622 kcal/mol
HEFRDEISVLKANNPHFDKIFEKHNQLDDDIKTAEQFNASDAEVSHMKKQKLKLKDEIHSMIIEYREK [Q37F]	0.569 kcal/mol
HEFRDEISVLKANNPHFDKIFEKHNQLDDTIKTAEQQNASDAEVSHMKKQKLKLKDEIHSMIIEYREK [D30T]	0.396 kcal/mol
HEFRDEISVLKATNPHFDKIFEKHNQLDDDIKTAEQQNASDAEVSHMKKQKLKLKDEIHSMIIEYREK [N13T]	1.39 kcal/mol
HEFRDEISVLKANNPHFDKIFEKHNQLDDDIKTAEQQNASDAEVSHMKKQKLKLKDEIVSMIIEYREK [H59V]	1.3 kcal/mol
HEFRDEISVLKANNPHFDKIFEKHNQLDDDIKTAEQQNASDAEVSHMKKQKLKLKDEIRSMIIEYREK [H59R]	1.04 kcal/mol
HEFRDEISVLKANNPHFDKIFEKHNQLDDDIKTAEQQNASDAEVSHMKKQKLKLKDEIFSMIIEYREK [H59F]	1.43 kcal/mol
HEFRDEISVLKANNPHPDKIFEKHNQLDDDIKTAEQQNASDAEVSHMKKQKLKLKDEIHSMIIEYREK [F17P]	-0.525 kcal/mol
HEFRDEISRLKANNPHFDKIFEKHNQLDDDIKTAEQQNASDAEVSHMKKQKLKLKDEIHSMIIEYREK [V9R]	1.01 kcal/mol
HEERDEISVLKANNPHFDKIFEKHNQLDDDIKTAEQQNASDAEVSHMKKQKLKLKDEIHSMIIEYREK [F3E]	0.242 kcal/mol
HEFRDEISVLKANNPHFDKIFEKHNQLDDDIKTAEQQNASDAEVSRMKKQKLKLKDEIHSMIIEYREK [H46R]	1.97 kcal/mol
